# Test results taken from patent US20200262877A1, “ION CHANNEL-BINDING PEPTIDES AND METHODS OF USE THEREOF” (priority 2017, published 2020).
# How the values were obtained:
# 5HT3a = molecular target: T1, 5HT3a (Homo sapiens, UniProt P46098); assay: Ion channel panel (IonWorks Barracuda): 5HT3a; format: cell-based
# T1 construct: host or cells: HEK293 or CHO
# T1 sequence (P46098 whole entry, looked up): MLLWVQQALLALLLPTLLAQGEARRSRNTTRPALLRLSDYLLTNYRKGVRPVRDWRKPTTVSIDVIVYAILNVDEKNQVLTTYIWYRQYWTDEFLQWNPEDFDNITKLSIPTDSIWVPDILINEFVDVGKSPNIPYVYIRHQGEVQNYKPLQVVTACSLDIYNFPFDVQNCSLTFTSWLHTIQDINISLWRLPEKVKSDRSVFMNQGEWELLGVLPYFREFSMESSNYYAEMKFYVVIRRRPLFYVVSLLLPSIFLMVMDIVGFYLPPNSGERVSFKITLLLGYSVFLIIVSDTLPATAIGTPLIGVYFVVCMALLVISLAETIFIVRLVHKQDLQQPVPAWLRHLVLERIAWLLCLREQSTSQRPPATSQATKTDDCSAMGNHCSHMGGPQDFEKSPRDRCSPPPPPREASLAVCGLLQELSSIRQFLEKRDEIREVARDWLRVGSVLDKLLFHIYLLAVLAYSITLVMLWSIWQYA
# Method: (§1) This example describes a method for assaying ion channel activity in cells.
# (§2) Peptides were screened in duplicate at final concentrations of 20 μM and 200 nM, as determined by amino acid analysis, and diluted into HEPES buffered physiological saline (HBPS). HEK293 or CHO cells from the American Type Culture Collection (ATCC) were transfected with the appropriate ion channel before use. HEK293 cells were grown in Dulbecco's Modified Eagle Medium/Nutrient Mixture F-12, and CHO cells were cultured in Ham's F-12 media. All cultures were supplemented with 10% fetal bovine serum, 100 U/ml penicillin G, 100 μg/ml streptomycin sulfate, and the appropriate selection antibiotics. Prior to use, cells were washed twice with Hank's Balanced Salt Solution, and treated with Accutase cell detachment solution (Sigma-Aldrich). Cells were then washed. Peptides and controls were incubated with cells for at least five minutes.
# (§3) Percent inhibition was defined as: (1-(Ipeptide/Icontrol))×100%).
# (§4) Percent values were calculated using the following formula: % activation=(IPeptide/Icontrol)×100%, where IPeptide is the current produced by co-application a peptide with agonist, and Icontrol refers to the current produced by stimulation in control. Control used for each ion channel is the reference compound matched to a particular channel, as illustrated in TABLE 10 below.
# hERG = hERG (Homo sapiens, UniProt Q12809); assay: in vitro; conditions: 100% = no change, <100% = inhibition
# Method: as §1, §2, §3, §4
# Nav1.5 = Nav1.5 (Homo sapiens, UniProt Q14524); assay: in vitro; conditions: 100% = no change; for Activity of Nav1.5 with peptide, expressed as a percentage of the reference compound: peptide at 0.2 μM; for Activity of Nav1.5 with peptide (percentage of the reference compound): peptide at 20 μM
# Sequence of Nav1.5 (Q14524 whole entry): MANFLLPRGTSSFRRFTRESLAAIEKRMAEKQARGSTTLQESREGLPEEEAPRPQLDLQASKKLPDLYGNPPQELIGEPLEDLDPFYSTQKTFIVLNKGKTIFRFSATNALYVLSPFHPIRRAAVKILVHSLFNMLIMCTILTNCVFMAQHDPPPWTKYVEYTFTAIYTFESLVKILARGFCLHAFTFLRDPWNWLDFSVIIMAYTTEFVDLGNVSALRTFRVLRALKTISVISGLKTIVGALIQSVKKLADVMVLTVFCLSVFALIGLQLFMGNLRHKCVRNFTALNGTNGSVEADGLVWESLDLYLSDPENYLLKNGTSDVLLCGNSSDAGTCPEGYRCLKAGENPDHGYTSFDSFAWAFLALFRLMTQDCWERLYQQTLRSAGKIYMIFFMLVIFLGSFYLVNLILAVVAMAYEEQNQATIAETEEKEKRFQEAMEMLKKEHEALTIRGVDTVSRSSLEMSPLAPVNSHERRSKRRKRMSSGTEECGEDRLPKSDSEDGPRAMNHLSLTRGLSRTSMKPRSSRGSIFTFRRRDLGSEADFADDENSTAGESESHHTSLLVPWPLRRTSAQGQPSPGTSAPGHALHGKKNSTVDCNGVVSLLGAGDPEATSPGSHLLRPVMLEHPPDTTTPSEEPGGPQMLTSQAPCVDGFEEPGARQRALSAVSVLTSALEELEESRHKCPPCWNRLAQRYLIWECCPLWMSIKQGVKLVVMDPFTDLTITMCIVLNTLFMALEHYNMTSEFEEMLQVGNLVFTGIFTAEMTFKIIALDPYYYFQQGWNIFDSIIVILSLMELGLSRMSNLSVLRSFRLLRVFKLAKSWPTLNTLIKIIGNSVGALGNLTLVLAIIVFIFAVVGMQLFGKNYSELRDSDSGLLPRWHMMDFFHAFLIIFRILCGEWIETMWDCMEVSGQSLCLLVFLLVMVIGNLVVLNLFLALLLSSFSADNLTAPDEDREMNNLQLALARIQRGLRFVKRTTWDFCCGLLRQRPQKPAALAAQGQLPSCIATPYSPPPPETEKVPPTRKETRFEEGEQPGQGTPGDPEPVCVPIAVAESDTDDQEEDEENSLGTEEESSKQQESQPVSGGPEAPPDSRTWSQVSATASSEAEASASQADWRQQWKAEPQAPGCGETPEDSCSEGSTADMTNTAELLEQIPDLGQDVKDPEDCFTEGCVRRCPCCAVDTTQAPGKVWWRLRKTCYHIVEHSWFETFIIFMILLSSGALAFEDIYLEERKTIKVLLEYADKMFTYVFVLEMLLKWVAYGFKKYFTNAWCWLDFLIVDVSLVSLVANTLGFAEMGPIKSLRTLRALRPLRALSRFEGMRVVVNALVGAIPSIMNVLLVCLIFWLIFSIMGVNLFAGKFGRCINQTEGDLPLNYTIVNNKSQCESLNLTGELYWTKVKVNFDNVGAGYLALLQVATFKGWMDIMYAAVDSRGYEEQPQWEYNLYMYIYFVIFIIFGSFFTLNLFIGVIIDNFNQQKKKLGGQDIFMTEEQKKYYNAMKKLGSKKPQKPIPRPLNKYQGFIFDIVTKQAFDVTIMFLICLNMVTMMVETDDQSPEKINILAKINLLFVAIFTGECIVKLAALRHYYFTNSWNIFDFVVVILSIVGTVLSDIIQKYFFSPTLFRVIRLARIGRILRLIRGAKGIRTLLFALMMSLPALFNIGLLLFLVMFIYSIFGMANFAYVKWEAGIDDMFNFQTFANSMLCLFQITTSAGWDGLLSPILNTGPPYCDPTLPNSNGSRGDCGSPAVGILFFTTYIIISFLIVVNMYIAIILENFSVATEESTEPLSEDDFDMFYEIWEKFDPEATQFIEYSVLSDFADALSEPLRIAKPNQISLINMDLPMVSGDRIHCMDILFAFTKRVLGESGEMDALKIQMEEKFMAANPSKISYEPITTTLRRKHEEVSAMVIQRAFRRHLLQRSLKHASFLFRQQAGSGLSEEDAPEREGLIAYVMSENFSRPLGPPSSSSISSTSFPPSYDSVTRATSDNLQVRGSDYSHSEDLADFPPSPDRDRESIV
# Method: as §1, §2, §3, §4
# TRPV1 = molecular target: T2, TRPV1 (Homo sapiens, UniProt Q8NER1); assay: Ion channel panel (IonWorks Barracuda): TRPV1; format: cell-based; conditions: 100% = no change, <100% = inhibition
# T2 construct: host or cells: HEK293 or CHO
# Method: as §1, §2, §3, §4
# α3β4 = molecular target: T3, α3β4 (Homo sapiens, UniProt P30926+P32297); assay: Ion channel panel (IonWorks Barracuda): α3β4; format: cell-based; conditions: 100% = no change, <100% = inhibition
# T3 construct: host or cells: HEK293 or CHO
# Method: as §1, §2, §3, §4
# NR2A = molecular target: T4, NR2A (Homo sapiens, UniProt Q12879); assay: Ion channel panel (IonWorks Barracuda): NR2A; format: cell-based; conditions: 100% = no change, <100% = inhibition
# T4 construct: host or cells: HEK293 or CHO
# Method: as §1, §2, §3, §4
# Kv1.3 = molecular target: T5, Kv1.3 (Homo sapiens, UniProt P22001); assay: cell-based; format: cell-based; conditions: 100% = no change, <100% = inhibition
# T5 construct: host or cells: HEK293 or CHO
# Method: as §1, §2, §3, §4
# Kv1.2 = molecular target: T6, Kv1.2 (Homo sapiens, UniProt P16389); assay: cell-based; format: cell-based; conditions: 100% = no change, <100% = inhibition
# T6 construct: host or cells: HEK293 or CHO
# Method: as §1, §2, §3, §4
# Kv1.1 = molecular target: T7, Kv1.1 (Homo sapiens, UniProt Q09470); assay: cell-based; format: cell-based; conditions: 100% = no change, <100% = inhibition
# T7 construct: host or cells: HEK293 or CHO
# T7 sequence (Q09470 whole entry): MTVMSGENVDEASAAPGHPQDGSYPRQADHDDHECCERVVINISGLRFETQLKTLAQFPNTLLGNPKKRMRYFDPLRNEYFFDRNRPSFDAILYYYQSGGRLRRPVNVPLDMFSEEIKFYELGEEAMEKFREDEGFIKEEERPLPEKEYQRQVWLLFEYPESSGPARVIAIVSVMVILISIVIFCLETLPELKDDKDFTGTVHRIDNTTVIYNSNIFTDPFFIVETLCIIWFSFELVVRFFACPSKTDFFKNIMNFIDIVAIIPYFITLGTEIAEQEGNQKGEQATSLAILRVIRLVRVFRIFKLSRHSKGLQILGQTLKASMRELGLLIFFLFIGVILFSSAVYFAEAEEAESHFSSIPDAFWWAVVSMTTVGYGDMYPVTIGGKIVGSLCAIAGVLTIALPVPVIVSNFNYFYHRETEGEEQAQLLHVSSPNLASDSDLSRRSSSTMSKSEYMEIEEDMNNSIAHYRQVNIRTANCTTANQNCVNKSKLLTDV
# Method: as §1, §2, §3, §4
# GABA = assay: Ion channel panel (IonWorks Barracuda): GABA; format: cell-based; conditions: 100% = no change, <100% = inhibition
# Method: as §1, §2, §3, §4
# TRPA1 = molecular target: T8, TRPA1 (Homo sapiens, UniProt O75762); assay: Ion channel panel (IonWorks Barracuda): TRPA1; format: cell-based; conditions: 100% = no change, <100% = inhibition
# T8 construct: host or cells: HEK293 or CHO
# Method: as §1, §2, §3, §4
# NR2B = molecular target: T9, NR2B (Homo sapiens, UniProt Q13224); assay: Ion channel panel (IonWorks Barracuda): NR2B; format: cell-based; conditions: 100% = no change, <100% = inhibition
# T9 construct: host or cells: HEK293 or CHO
# Method: as §1, §2, §3, §4
# Nav1.7 = molecular target: T10, Nav1.7 (Homo sapiens, UniProt Q15858); assay: cell-based; format: cell-based; conditions: 100% = no change; for Activity of Nav1.7 with peptide, expressed as a percentage of the reference compound: peptide at 0.2 μM; for Activity of Nav1.7 with peptide (percentage of the reference compound): peptide at 20 μM
# T10 construct: host or cells: HEK293 or CHO
# T10 sequence (Q15858 whole entry): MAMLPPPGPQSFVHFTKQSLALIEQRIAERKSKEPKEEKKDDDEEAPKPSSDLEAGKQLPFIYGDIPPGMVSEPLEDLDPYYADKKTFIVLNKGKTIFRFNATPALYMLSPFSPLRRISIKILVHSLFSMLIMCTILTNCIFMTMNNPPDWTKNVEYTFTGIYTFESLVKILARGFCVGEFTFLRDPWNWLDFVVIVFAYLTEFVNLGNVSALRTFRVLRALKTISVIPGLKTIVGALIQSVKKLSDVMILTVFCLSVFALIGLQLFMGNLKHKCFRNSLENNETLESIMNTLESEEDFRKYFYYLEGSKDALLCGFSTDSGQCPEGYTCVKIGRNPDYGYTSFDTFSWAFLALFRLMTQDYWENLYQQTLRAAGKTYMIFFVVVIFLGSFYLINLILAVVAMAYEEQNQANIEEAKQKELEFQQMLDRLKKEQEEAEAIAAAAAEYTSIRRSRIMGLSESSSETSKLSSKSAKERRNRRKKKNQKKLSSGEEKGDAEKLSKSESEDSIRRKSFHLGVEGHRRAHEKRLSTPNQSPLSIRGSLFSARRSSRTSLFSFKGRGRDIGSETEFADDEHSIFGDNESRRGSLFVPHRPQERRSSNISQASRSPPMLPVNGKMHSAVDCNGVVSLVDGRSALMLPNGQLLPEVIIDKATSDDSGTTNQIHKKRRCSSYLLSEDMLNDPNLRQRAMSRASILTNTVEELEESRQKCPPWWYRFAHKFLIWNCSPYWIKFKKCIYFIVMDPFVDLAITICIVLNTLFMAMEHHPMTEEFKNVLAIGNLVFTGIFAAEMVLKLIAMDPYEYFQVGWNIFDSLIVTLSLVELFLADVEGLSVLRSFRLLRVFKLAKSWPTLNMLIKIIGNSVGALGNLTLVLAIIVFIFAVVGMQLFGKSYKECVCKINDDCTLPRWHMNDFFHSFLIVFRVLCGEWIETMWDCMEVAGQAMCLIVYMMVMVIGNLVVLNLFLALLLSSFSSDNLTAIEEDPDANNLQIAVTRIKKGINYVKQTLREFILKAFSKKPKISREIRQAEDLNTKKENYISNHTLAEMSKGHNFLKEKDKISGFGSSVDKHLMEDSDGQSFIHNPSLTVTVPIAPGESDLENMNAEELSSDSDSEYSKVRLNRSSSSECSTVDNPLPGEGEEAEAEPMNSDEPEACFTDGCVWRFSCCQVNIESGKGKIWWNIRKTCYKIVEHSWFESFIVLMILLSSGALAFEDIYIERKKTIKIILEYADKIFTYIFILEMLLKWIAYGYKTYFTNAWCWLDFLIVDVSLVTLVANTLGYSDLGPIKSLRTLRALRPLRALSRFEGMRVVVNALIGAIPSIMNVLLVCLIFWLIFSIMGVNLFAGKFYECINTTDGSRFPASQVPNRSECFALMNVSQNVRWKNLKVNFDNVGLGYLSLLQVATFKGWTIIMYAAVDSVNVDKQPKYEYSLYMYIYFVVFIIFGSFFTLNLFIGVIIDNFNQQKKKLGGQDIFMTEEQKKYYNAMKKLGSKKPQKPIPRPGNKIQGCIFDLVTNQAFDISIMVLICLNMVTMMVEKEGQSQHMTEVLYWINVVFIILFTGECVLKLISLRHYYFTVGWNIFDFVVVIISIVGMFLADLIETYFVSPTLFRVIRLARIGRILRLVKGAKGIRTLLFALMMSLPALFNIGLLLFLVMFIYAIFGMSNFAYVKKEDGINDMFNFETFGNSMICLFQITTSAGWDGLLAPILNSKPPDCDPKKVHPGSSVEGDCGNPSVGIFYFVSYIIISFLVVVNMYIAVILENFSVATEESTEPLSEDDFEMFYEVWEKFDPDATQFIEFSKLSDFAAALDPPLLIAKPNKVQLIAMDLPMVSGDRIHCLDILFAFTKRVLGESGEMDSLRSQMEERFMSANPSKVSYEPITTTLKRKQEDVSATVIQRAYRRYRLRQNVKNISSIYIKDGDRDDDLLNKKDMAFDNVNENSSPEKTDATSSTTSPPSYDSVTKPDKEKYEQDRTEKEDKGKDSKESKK
# Method: as §1
# as §2, with “Peptides were screened in duplicate at final concentrations of 20 μM and 200 nM, as determined by amino acid analysis, and diluted into HEPES buffered physiological saline (HBPS).” left out
# as §3, §4
# Cav2.2 = molecular target: T11, Cav2.2 (Homo sapiens, UniProt Q00975); assay: cell-based; conditions: 100% = no change, <100% = inhibition
# T11 construct: host or cells: HEK293 or CHO
# Method: as §1, §2, §3, §4
# Cav2.1 = molecular target: T12, Cav2.1 (Homo sapiens, UniProt O00555); assay: cell-based; conditions: 100% = no change, <100% = inhibition
# T12 construct: host or cells: HEK293 or CHO
# Method: as §1, §2, §3, §4
# Kv2.1 = molecular target: T13, Kv2.1 (Homo sapiens, UniProt Q14721); assay: cell-based; conditions: 100% = no change, <100% = inhibition
# T13 construct: host or cells: HEK293 or CHO
# Method: as §1, §2, §3, §4
# α4β2 = molecular target: T14, α4β2 (Homo sapiens, UniProt P17787+P43681); assay: Ion channel panel (IonWorks Barracuda): α4β2; format: cell-based; conditions: 100% = no change, <100% = inhibition
# T14 construct: host or cells: HEK293 or CHO
# Method: as §1, §2, §3, §4
# Kir2.1 = molecular target: T15, Kir2.1 (Homo sapiens, UniProt P63252); assay: Ion channel panel (IonWorks Barracuda): Kir2.1; format: cell-based; conditions: 100% = no change, <100% = inhibition
# T15 construct: host or cells: HEK293 or CHO
# T15 sequence (P63252 whole entry): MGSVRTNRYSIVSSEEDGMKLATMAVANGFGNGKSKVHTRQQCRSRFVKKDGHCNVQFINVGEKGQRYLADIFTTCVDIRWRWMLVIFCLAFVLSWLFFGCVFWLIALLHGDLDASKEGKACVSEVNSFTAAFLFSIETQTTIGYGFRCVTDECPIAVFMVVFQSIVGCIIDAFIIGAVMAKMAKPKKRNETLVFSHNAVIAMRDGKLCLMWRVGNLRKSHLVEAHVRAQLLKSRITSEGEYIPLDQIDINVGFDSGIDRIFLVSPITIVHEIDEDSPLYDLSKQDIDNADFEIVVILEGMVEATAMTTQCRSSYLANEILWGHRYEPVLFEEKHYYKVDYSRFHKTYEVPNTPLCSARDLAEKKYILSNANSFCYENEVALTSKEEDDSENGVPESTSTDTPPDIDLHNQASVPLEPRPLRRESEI
# Method: as §1, §2, §3, §4
# [1] = first of two Nav1.5 columns (probably TP1)
# [2] = second of two Nav1.5 columns (probably TP2)
# [3] = first of two Nav1.7 columns (probably TP1)
# [4] = second of two Nav1.7 columns (probably TP2)
substance,measurement,setting,value
24 (GSSCAKPGEMCMRIKCCDGQCGCNRGTGRCFCK) [compound 24],Activity of 5HT3a with peptide (percentage of the reference compound),5HT3a,84%
same,"Activity of 5HT3a with peptide, expressed as a percentage of the reference compound",5HT3a,85%
same,"Activity of hERG with peptide, expressed as a percentage of the reference compound",hERG; peptide at 0.2 μM,88%
same,Activity of hERG with peptide (percentage of the reference compound),hERG; peptide at 20 μM,78%
same,"Activity of Nav1.5 with peptide, expressed as a percentage of the reference compound",Nav1.5; [1],94%
same,"Activity of Nav1.5 with peptide, expressed as a percentage of the reference compound",Nav1.5; [2],95%
same,Activity of Nav1.5 with peptide (percentage of the reference compound),Nav1.5; [1],99%
same,Activity of Nav1.5 with peptide (percentage of the reference compound),Nav1.5; [2],104%
same,"Activity of TRPV1 with peptide, expressed as a percentage of the reference compound",TRPV1; peptide at 0.2 μM,131%
same,Activity of TRPV1 with peptide (percentage of the reference compound),TRPV1; peptide at 20 μM,102%
same,"Activity of a3b4 with peptide, expressed as a percentage of the reference compound",α3β4; peptide at 0.2 μM,101%
same,Activity of a3b4 with peptide (percentage of the reference compound),α3β4; peptide at 20 μM,87%
same,"Activity of NR2A with peptide, expressed as a percentage of the reference compound",NR2A; peptide at 0.2 μM,102%
same,Activity of NR2A with peptide (percentage of the reference compound),NR2A; peptide at 20 μM,100%
same,"Activity of Kv1.3 with peptide, expressed as a percentage of the reference compound",Kv1.3; peptide at 0.2 μM,94%
same,Activity of Kv1.3 with peptide (percentage of the reference compound),Kv1.3; peptide at 20 μM,73%
same,"Activity of Kv1.2 with peptide, expressed as a percentage of the reference compound",Kv1.2; peptide at 0.2 μM,74%
same,Activity of Kv1.2 with peptide (percentage of the reference compound),Kv1.2; peptide at 20 μM,83%
same,"Activity of Kv1.1 with peptide, expressed as a percentage of the reference compound",Kv1.1; peptide at 0.2 μM,65%
same,Activity of Kv1.1 with peptide (percentage of the reference compound),Kv1.1; peptide at 20 μM,69%
same,"Activity of GABA with peptide, expressed as a percentage of the reference compound",GABA; peptide at 0.2 μM,96%
same,Activity of GABA with peptide (percentage of the reference compound),GABA; peptide at 20 μM,114%
same,"Activity of TRPA1 with peptide, expressed as a percentage of the reference compound",TRPA1; peptide at 0.2 μM,132%
same,Activity of TRPA1 with peptide (percentage of the reference compound),TRPA1; peptide at 20 μM,107%
same,"Activity of NR2B with peptide, expressed as a percentage of the reference compound",NR2B; peptide at 0.2 μM,102%
same,Activity of NR2B with peptide (percentage of the reference compound),NR2B; peptide at 20 μM,92%
same,"Activity of Nav1.7 with peptide, expressed as a percentage of the reference compound",Nav1.7; [3],84%
same,"Activity of Nav1.7 with peptide, expressed as a percentage of the reference compound",Nav1.7; [4],97%
same,Activity of Nav1.7 with peptide (percentage of the reference compound),Nav1.7; [3],80%
same,Activity of Nav1.7 with peptide (percentage of the reference compound),Nav1.7; [4],83%
same,"Activity of Cav2.2 with peptide, expressed as a percentage of the reference compound",Cav2.2; peptide at 0.2 μM,120%
same,Activity of Cav2.2 with peptide (percentage of the reference compound),Cav2.2; peptide at 20 μM,102%
same,"Activity of Cav2.1 with peptide, expressed as a percentage of the reference compound",Cav2.1; peptide at 0.2 μM,92%
same,Activity of Cav2.1 with peptide (percentage of the reference compound),Cav2.1; peptide at 20 μM,121%
same,"Activity of Kv2.1 with peptide, expressed as a percentage of the reference compound",Kv2.1; peptide at 0.2 μM,91%
same,Activity of Kv2.1 with peptide (percentage of the reference compound),Kv2.1; peptide at 20 μM,81%
same,"Activity of a4b2 with peptide, expressed as a percentage of the reference compound",α4β2; peptide at 0.2 μM,97%
same,Activity of a4b2 with peptide (percentage of the reference compound),α4β2; peptide at 20 μM,88%
same,"Activity of Kir2.1 with peptide, expressed as a percentage of the reference compound",Kir2.1; peptide at 0.2 μM,104%
same,Activity of Kir2.1 with peptide (percentage of the reference compound),Kir2.1; peptide at 20 μM,90%
